Measurements as given in publication PMC10167949.
The star is where a group is joined. Biotin = O=C1N[C@H]2[C@H](CS[C@H]2CCCCC(=O)*)N1

Columns and labels:
[1] = target: Phosphorylated MST2 kinase domain (pMST2-K) (human) (UniProt Q13188)
[2] = target: Phosphorylated MST2 kinase linker (pMST2-KL) (human) (UniProt Q13188)
[3] = target: Phosphorylated full-length MST2 (pMST2-FL) (human) (UniProt Q13188)
[4] = target: T1, Unphosphorylated full-length MST2 (MST2-FL) (human) (UniProt Q13188)
T1 sequence: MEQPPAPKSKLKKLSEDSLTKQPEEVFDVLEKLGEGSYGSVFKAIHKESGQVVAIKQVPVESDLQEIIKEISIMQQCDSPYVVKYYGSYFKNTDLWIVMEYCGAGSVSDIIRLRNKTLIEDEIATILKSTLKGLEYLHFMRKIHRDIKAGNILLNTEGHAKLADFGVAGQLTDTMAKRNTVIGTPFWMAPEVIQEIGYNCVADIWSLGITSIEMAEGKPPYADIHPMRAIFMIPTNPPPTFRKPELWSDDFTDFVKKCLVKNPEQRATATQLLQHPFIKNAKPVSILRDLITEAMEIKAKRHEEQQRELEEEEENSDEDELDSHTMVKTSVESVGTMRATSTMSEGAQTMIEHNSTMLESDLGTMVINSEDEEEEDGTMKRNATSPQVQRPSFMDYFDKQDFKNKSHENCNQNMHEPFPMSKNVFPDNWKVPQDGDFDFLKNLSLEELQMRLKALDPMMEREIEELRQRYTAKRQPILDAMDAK

Km^app peptide, radiometric kinase assay (steady state, 30°C) [1]: 27 µM | Km^app peptide, radiometric kinase assay (steady state, 30°C) [2]: 35 µM | Km^app peptide, radiometric kinase assay (steady state, 30°C) [3]: 32 µM | Km^app peptide, radiometric kinase assay (steady state, 30°C) [4]: 139 µM
B1: peptide substrate (Biotin-…-NH2) (peptide)
peptide: Biotin-GGGENWYNTLKRKK-NH2
SMILES: CC(C)C[C@H](NC(=O)[C@@H](NC(=O)[C@H](CC(N)=O)NC(=O)[C@H](Cc1ccc(O)cc1)NC(=O)[C@H](Cc1c[nH]c2ccccc12)NC(=O)[C@H](CC(N)=O)NC(=O)[C@H](CCC(=O)O)NC(=O)CNC(=O)CNC(=O)CNC(=O)CCCC[C@@H]1SC[C@@H]2NC(=O)N[C@@H]21)[C@@H](C)O)C(=O)N[C@@H](CCCCN)C(=O)N[C@@H](CCCNC(=N)N)C(=O)N[C@@H](CCCCN)C(=O)N[C@@H](CCCCN)C(N)=O
